B1: Recombinant human VSIG3 Fc Chimera (Fc fusion)
chain: LEVSESPGSIQVARGQTAVLPCTFTTSAALINLNVIWMVTPLSNANQPEQVILYQGGQMFDGAPRFHGRVGFTGTMPATNVSIFINNTQLSDTGTYQCLVNNLPDIGGRNIGVTGLTVLVPPSAPHCQIQGSQDIGSDVILLCSSEEGIPRPTYLWEKLDNTLKLPPTATQDQVQGTVTIRNISALSSGLYQCVASNAIGTSTCLLDLQVISPQPRNIGLIAGIEGRMDPKSCDKTHTCPPCPAPEAEGAPSVFLFPPKPKDTLMISRTPEVTCVVVDVSHEDPEVKFNWYVDGVEVHNAKTKPREEQYNSTYRVVSVLTVLHQDWLNGKEYKCKVSNKALPAPIEKTISKAKGQPREPQVYTLPPSRDELTKNQVSLTCLVKGFYPSDIAVEWESNGQPENNYKATPPVLDSDGSFFLYSKLTVDKSRWQQGNVFSCSVMHEALHNHYTQKSLSLSPGK
notes: also called rhVSIG3; rhVSIG-3
B2: mouse anti-human VSIG3 monoclonal antibody from clone #973401 (antibody, IgG1, V domains shown)
VH: QVQLQQSAAELARPGASVKMSCKASGYTFATYTIHWVKQRPGQGLEWIGYINPSSGYTEYNQKFKDKTTLTADKSSSTAYMQLSSLTSEDSAVYYCARREVYGSGSMDYWGQGTSVTVSS
VL: QIVLTQSPALMSASPGEKVTMTCSASSSVSFMYWYHQKPRSSPKPWIYLTSNLASGVPARFSGSGSGTSYSLTISSMEAEDAATYYCQQWSSNPLTFGAGTKLELKR
notes: also called fusion 9734 clone 1
B3: mouse anti-human VSIG3 monoclonal antibody from clone #973428 (antibody, IgG1, V domains shown)
VH: EVQLVESGGDLVKPGGSLKLSCAASGFTFNSYGMSWVRQTPDKRLEWVAIISSGGSYTYYPDSVKGRFTISRDNAKNTLYLQMSSLKSEDTAMYYCARLSYYYGSSPYAMDYWGQGTSVTISS
VL: DIVLTQSPASLAVSLGQRATISCRASKSVSTSGYSYMHWYQQKPGQSPKLLIYLASNLESGVPARCSGSGSGTDFTLNIHPVEEEDAATYYCQHSRELPYTFGGGTKLEIKR
notes: also called fusion 9734 clone 28
B4: VSIG8 Fc-fusion (AVEXIS bait) (Fc fusion, UniProt P0DPA2 22-263, looked up)
chain: VRINGDGQEVLYLAEGDNVRLGCPYVLDPEDYGPNGLDIEWMQVNSDPAHHRENVFLSYQDKRINHGSLPHLQQRVRFAASDPSQYDASINLMNLQVSDTATYECRVKKTTMATRKVIVTVQARPAVPMCWTEGHMTYGNDVVLKCYASGGSQPLSYKWAKISGHHYPYRAGSYTSQHSYHSELSYQESFHSSINQGLNNGDLVLKDISRADDGLYQCTVANNVGYSVCVVEVKVSDSRRIG
notes: extracellular domain; not shown: Fc

Assays:
[1] = biological target: T1, PD1 ectodomain coupled to pentamerizing rat COMP helix and alkaline phosphatase (AVEXIS prey) (rat, UniProt Q15116 25-170; P35444 28-72); test: AVEXIS, VSIG3 Fc-fusion bait, PD1-COMP-AP prey (FIG. 12B)
T1 construct: not shown: alkaline phosphatase enzyme
Source text: (§1) FIG. 12B AVEXIS was used to screen interactions between VISTA and VSIG3, VSIG8, and PD1, and results were quantified by measuring absorbance at 650 nm using the alkaline phosphatase reagent BluePhos. […] FIG. 12C.
(§2) The ectodomains of VSIG3, VISTA, and other immunoregulatory receptors were cloned into a construct containing the rat cartilage oligomeric matrix protein (COMP), which forms a covalent, pentameric coiled-coil helix oligomer (Malashkevich et al. Science. 274 (1996) 761-5), followed by an alkaline phosphatase enzyme for detection. […] Conditioned media containing the oligomeric prey protein fused to the COMP helical oligomer and alkaline phosphatase was incubated and washed, and the interaction was quantitatively measured by detection of alkaline phosphatase activity using the BLUEPHOS reagent (KPL/Sera Care, Milford, Mass.).

[2] = biological target: T2, VSIG8 ectodomain coupled to pentamerizing rat COMP helix and alkaline phosphatase (AVEXIS prey) (rat, UniProt P0DPA2 22-263; P35444 28-72); test: AVEXIS, VSIG3 Fc-fusion bait, VSIG8-COMP-AP prey (FIG. 12B)
T2 construct: not shown: alkaline phosphatase enzyme
T2 sequence (looked up): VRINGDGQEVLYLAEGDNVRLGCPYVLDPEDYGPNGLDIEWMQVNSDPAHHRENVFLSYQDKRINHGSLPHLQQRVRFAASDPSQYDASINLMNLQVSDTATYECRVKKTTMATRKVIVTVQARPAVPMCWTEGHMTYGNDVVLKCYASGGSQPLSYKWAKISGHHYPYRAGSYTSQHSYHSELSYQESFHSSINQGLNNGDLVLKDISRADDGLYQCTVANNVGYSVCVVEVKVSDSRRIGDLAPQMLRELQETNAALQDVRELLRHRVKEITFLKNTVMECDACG
Source text: as §1, §2

[3] = biological target: T3, Recombinant human VISTA Fc Chimera (human (homo sapiens)); test: ELISA, rhVISTA coated at 2 µg/mL, biotin-labelled rhVSIG3 titrated, streptavidin-HRP (FIG. 1A)
T3 construct: also called rhVISTA; VISTA-Fc bait

[4] = biological target: B1; test: SPR (Biacore), VSIG3-Fc immobilised, antibody as analyte (FIG. 14)
Procedure: The affinity of these blocking antibodies to purified recombinant VSIG3 was measured by surface plasmon resonance (SPR) using a Biacore T200 in two assay orientations. […] Dilutions of antibody were then flowed over the surface and the double reference subtracted data fit to a 1:1 Langmuir binding model with Biacore T200 Evaluation Software version 3.1 (FIG. 14). In a separate assay, a fusion protein containing protein A/G/L (Novus Biologicals, Littleton, Colo.) was covalently immobilized to the surface of a CM5 chip by standard amine coupling chemistry. Antibody was captured, followed by dilutions of VSIG3 His-fusion. Double reference subtracted data were fit to a 1:1 Langmuir binding model as described above (FIG. 15).

[5] = biological target: T4, VSIG3 ectodomain coupled to pentamerizing rat COMP helix and alkaline phosphatase (AVEXIS prey) (rat, UniProt Q5DX21 23-241; P35444 28-72); test: AVEXIS, VSIG8 Fc-fusion bait, VSIG3-COMP-AP prey (FIG. 12B)
T4 construct: used as conditioned medium; also called VSIG3 oligomer as prey; penta-VSIG3; not shown: alkaline phosphatase enzyme
T4 sequence (looked up): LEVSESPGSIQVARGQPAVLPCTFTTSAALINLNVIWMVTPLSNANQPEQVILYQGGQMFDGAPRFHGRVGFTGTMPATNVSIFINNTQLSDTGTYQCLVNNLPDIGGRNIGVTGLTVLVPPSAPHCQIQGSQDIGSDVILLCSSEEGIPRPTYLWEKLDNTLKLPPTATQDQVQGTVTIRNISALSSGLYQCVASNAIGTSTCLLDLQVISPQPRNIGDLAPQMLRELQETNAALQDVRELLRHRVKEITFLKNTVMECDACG
Source text: as §1, §2

For B1, the binding result [1] was “no binding”, the binding result [2] was “no binding” and the EC50 [3] was ~0.25 mg/L.

B2: binds [4].

B3: binds [4].

B4: no binding [5].

Source: patent US20190194322A1 (BIO TECHNE, published 2019)
